For 15 molecules, Kd results are on record in paper PMC5323130 (Oncotarget, 2016).

Where a SMILES comes first, the peptide text is derived from it. Where no end group is shown, it is not given here.

The labels stand for the following.
B1: Ar5Y_2 (peptide)
peptide: FNWDYSLEELREKAKYK
notes: de novo designed peptide with anchor residues Y56, R113, A121, D122 and Y123 of hPD-L1; source: synthetic peptide (Fmoc solid-phase synthesis)
B2: Ar5Y_3 (peptide)
peptide: TEKDYRHGNIRMKLAYDL
notes: as for B1
B3: Ar5Y_4 (peptide)
peptide: GNWDYNSQRAQLYNQ
notes: as for B1
B4: Ar5Y_1 (peptide)
peptide: FNWDYSWKSERLKEAYDL
notes: as for B1
B5: Ar5Y_4 mutant Y13A (peptide)
peptide: GNWDYNSQRAQLANQ
notes: numbers count on the peptide itself; source: synthetic peptide (Fmoc solid-phase synthesis)
B6: Ar5Y_4 mutant D4A (peptide)
peptide: GNWAYNSQRAQLYNQ
notes: as for B5
B7: Ar5Y_4 mutant W3A (peptide)
peptide: GNADYNSQRAQLYNQ
notes: as for B5
B8: Ar5Y_4 mutant Y5A (peptide)
peptide: GNWDANSQRAQLYNQ
notes: as for B5
B9: Ar5Y_4 mutant R9A (peptide)
peptide: GNWDYNSQAAQLYNQ
notes: as for B5
B10: Ar5M_1 (peptide)
peptide: LDYGDKREGQMAE
notes: peptide designed with anchor residues R113, M115, A121, D122 and Y123 of hPD-L1; source: synthetic peptide (Fmoc solid-phase synthesis)
B11: Ar4_1 (peptide)
peptide: GIDYEERWK
notes: peptide designed with anchor residues R113, A121, D122 and Y123 of hPD-L1; source: synthetic peptide (Fmoc solid-phase synthesis)
B12: Ar5M_2 (peptide)
peptide: LDYVNRRKMYQ
notes: as for B10
B13: Ar4_2 (peptide)
peptide: LDYDGRLSQ
notes: as for B11

The first assay deals with T1, hPD-1 (Homo sapiens, UniProt Q15116).
T1 construct: extracellular region of hPD-1 (amino acids 34–150); made in house; host or cells: E. coli BL21 (DE3)
T1 sequence (Q15116 34-150): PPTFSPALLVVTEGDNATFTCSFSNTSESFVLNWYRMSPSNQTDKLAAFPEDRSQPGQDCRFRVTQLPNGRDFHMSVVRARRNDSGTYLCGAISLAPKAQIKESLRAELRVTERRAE
Description: SPR direct binding assay, hPD-1 immobilized on CM5 sensor chip. Particulars: steady-state model, PBS-P buffer pH 7.4, 25°C, mean ± SD from three independent experiments. The protocol: The purified active hPD-1 was diluted in 10 mM sodium acetate buffer (pH 4.5) to the final concentration of 50 μg/ml. The diluted hPD-1 was immobilized on a CM5 sensor chip by amino coupling reagent kit, and the immobilization level was 5000 response unit (RU). Binding experiments were performed in PBS-P buffer (8 mM Na2HPO4, 2 mM KH2PO4, 137 mM NaCl, 2.7 mM KCl, 0.005% surfactant P20, pH 7.4) at 25°C with a flow rate of 30 μl/min. […] RU values were collected and all the experimental data was globally analyzed by a steady-state model within Biacore T200 Evaluation software, version 2.0.
In general, Kd refers to a measure of binding affinity in units of concentration. For `N[C@@H](Cc1c[nH]c2ccccc12)C(=O)N[C@@H](CC(=O)O)C(=O)N[C@@H](Cc1ccc(O)cc1)C(=O)N[C@@H](CC(=O)O)C(=O)O` [Ar3_1, WDYD] (H-WDYD-OH), the Kd was determined as 22.4 ± 0.34 µM.
GNWDANSQRAQLYNQ [Peptide Y5A] displayed a Kd of 20.1 ± 0.98 µM.

For a further assay, the target named is T2, human programmed death 1 (hPD-1), extracellular region (amino acids 34-150) (human, UniProt Q15116 34-150).
T2 construct: extracellular region of human PD-1, amino acids 34-150, cloned into pET28a between NcoI and NdeI sites; purification was by cation exchange and gel filtration; also called CD279
T2 sequence (Q15116 34-150): as above
Kind of assay: SPR; Biacore T200; hPD-1 immobilised on a CM5 chip by amine coupling (5000 RU); peptides or hPD-L1 injected 90 s, dissociation 120 s; PBS-P buffer pH 7.4, 25°C, 30 μl/min; steady-state model. Particulars: both partners purified. A general note: In SPR one partner is held on a chip, and binding of the other changes the refractive index at the surface.
On to B1, for which the Kd came to 3.14 µM.
As for B2, binding was characterised by a dissociation constant (Kd) of 3.13 µM.
With B3, the affinity, expressed as Kd, was 1.38 µM.
B4 came in with a Kd of 3.39 µM.

The next assay has as its target T2, human programmed death 1 (hPD-1), …. Described as above. Particulars: both partners purified. The source holds these as a separate data set.
In the case of B5, the affinity, expressed as Kd, was 10.2 µM.
With B6, the affinity, expressed as Kd, was 18.9 µM.
The same measure, in the same setting: with B7 the figure was 8.08 µM.
Consider B8, for which the Kd was 20.2 µM.
With B9, the Kd turned out to be 21.2 µM.

The target is the same in another assay. The description is as above. Particulars: both partners purified. The source holds these as a separate data set.
For B10, binding was characterised by a dissociation constant (Kd) of 21.6 µM.
Same read-out and setting: with B11 the figure was 28.3 µM; with B12, 3.32 µM.
Still for that read-out and setting: under B13 stands 83.9 µM.
